Measured values from paper PMC10186271, “The ABA-induced NAC transcription factor MdNAC1 interacts with a bZIP-type transcription factor to promote anthocyanin synthesis in red-fleshed apples”.
Changes are numbered by the printed parent chain.

Tests used:
[1] = molecular target: T1, MdNAC1 (Malus domestica, UniProt D9ZJ87 1-280); assay: EMSA; unlabeled competitor decreased binding; Thermo Scientific Pierce EMSA kit protocol; buffer, salt, pH and temperature not stated; cold probe 100x; conditions: protein: recombinant; tags: His (pET32a); chain copies: 2; label: 3' biotin; blunt
T1 sequence: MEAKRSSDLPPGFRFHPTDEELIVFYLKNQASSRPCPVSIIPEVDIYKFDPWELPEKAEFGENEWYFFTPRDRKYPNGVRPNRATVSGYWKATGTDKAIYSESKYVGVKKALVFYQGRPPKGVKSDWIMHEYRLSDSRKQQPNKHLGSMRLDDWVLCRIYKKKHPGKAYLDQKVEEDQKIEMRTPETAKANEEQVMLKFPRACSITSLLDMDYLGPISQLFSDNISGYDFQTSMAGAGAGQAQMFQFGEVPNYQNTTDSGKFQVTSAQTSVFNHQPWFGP

[2] = molecular target: T1, MdNAC1; assay: EMSA; Thermo Scientific Pierce EMSA kit protocol; buffer, salt, pH and temperature not stated; cold probe 100x; conditions: protein: recombinant; tags: His (pET32a); chain copies: 2; label: 3' biotin; blunt

B1: UFGT hot probe (box 1) (dsDNA)
DNA 1: GTGATTGGCTTCTGATGTTGACACGTGTCGCGCTGTGGTTGGCTTC
DNA 2: GAAGCCAACCACAGCGCGACACGTGTCAACATCAGAAGCCAATCAC
B1: binds [1].

B2: UFGT mutant probe (box 1) (dsDNA)
DNA 1: B1 DNA 1 with A23C, C24T, G25C
DNA 2: B1 DNA 2 with C22G, G23A, T24G
B2: no binding [2].

B3: MYB10 hot probe (dsDNA)
DNA 1: TTTAATAAAAAGGACCCTGAACACGTGGGAACCGGCCCGTTTGTAA
DNA 2: TTACAAACGGGCCGGTTCCCACGTGTTCAGGGTCCTTTTTATTAAA
B3: binds [1].

B4: MYB10 mutant probe (dsDNA)
DNA 1: B3 DNA 1 with C22T, A23T, C24A, G25A
DNA 2: B3 DNA 2 with C22T, G23T, T24A, G25A
B4: no binding [2].
